The values below come from paper PMC10403523.

The test system of series [1] is yeast SWI/SNF complex (WT) (Saccharomyces cerevisiae). The experiment in a line: EMSA. Particulars: apparent KD, Kd EMSA: 6.7 nM DNA or nucleosome, 1.3-23 nM SWI/SNF, 4% native PAGE (79:1), Methods: prebinding 30 C, 15 min, gel in 0.5x TBE, binding buffer, salt and pH not …. In general terms: Mobility shift assays separate free from complexed probe on a gel.
For series [2], the target named is 29N59 mononucleosome: recombinant Xenopus laevis histone octamer on 601 DNA with 29 and 59 bp of flanking DNA (Xenopus laevis). Kind of series: native gel or EMSA; apparent KD; 6.7 nM 29N59 nucleosomes, WT or ΔAT SWI/SNF varied from 1.3 to 23 nM; 4% native polyacrylamide gel (79:1).
For series [3], the system named is yeast SWI/SNF complex (WT) (Saccharomyces cerevisiae). Kind of series: competition. Particulars: EMSA competition against 601 DNA; Kd EMSA: 6.7 nM DNA or nucleosome, 1.3-23 nM SWI/SNF, 4% native PAGE (79:1); Methods: prebinding 30 C, 15 min, gel in 0.5x …; binding buffer, salt and pH not.

For the substance 29N59 nucleosome, the Kd in series [1] (6.7 nM nucleosome, recombinant Xenopus laevis histone octamer) was 7.67 nM.

On to “yeast SWI/SNF complex with both AT-hooks of Snf2 deleted (from UniProt P22082 1-1703; P18480 1-905; Q12406 1-477; P09547 1-1314; P18888 1-332)”, for which the Kd in series [2] is 20.5 nM. As to 235 bp 601 DNA, in series [1] (6.7 nM DNA), the Kd came to 7.87 nM. For the substance “yeast SWI/SNF complex, wild type (from UniProt P22082 1-1703; P18480 1-905; Q12406 1-477; P09547 1-1314; P18888 1-332)”, the Kd in series [2] was found to be 7.67 nM. Turning to pUC19 plasmid, in series [3], the Ki is 12 nM.

For orientation: Ki means the dissociation constant of the complex between target and ligand, obtained from inhibition or displacement.
